In article PMC10187114:
pKd: −log10 of the molar value.

What was measured:
VPS35L (human) = VPS35L (human) (UniProt Q7Z3J2); assay: SEC; Retriever co-expressed in insect cells, affinity purification then size-exclusion chromatography (Superdex200, 25 mM HEPES pH 8.0, 300 mM NaCl, 2 mM β-mercaptoethanol, 4°C)
[1] = biological target: VPS29 (recombinant) (human) (UniProt Q9UBQ0); assay: ITC; VPS35L peptides at 600 μM titrated into 20 μM VPS29, 100 mM Tris pH 7.4, 300 mM NaCl, 25°C, single site model

| Substance | stoichiometry N (VPS35L (human)) | pKd [1] |
| --- | --- | --- |
| 3xStrepII-VPS26C (from UniProt O14972 1-297) (natural protein) | 1 |  |
| VPS35L (28-37) peptide (from UniProt Q7Z3J2 28-37) |  | 5.17 |
